How the values were obtained:
complement C3b [1] = target: complement C3b (UniProt P01024); assay: cell-based or functional assay
complement C3b [2] = target: complement C3b (UniProt P01024); assay: competition ELISA: CRIg protein against CRIg-LFH on plate-coated C3b, anti-FLAG detection

Row | fold increase of IC50 compared to wt CRIg (complement C3b [2]) | Substance | also measured
1 |  | CRIg (soluble, construct not stated) (from UniProt Q9Y279 20-189) (receptor) | inhibition of C5b-9 deposition through the alternative pathway (LPS-coated plate, C1q deficient serum) (complement C3b [1]): 1.49 µM
2 | > 10000 fold | CRIg mutant A (E85A M86A) (from UniProt Q9Y279 20-399) (receptor) | 
3 | 100 fold | CRIg mutant B (H57A Q59A) (from UniProt Q9Y279 20-399) (receptor) | 
4 |  | CRIg-Fc (from UniProt Q9Y279 20-283) (Fc fusion) | inhibition of hemolysis of rabbit erythrocytes in C1q deficient serum (alternative pathway) (complement C3b [1]): 127 nM
